Assay results taken from paper PMC9464147.
Where “and” joins values, the source holds several entries; their conditions need not be identical. Identical values can stand only once.

Key:
[1] = target: Salivary CA VI (carbonic anhydrase VI purified from human saliva) (human) (UniProt P23280); assay: SEC; analytical SEC, Superdex 200 5/150 GL, 50 µg protein, 0.1 M Na-acetate buffer pH 5.0, 0.1 ml/min, +12 °C; MW from a standard curve, oligomeric state calculated with a monomer MW of 33.57 kDa
[2] = target: Salivary CA VI (carbonic anhydrase VI purified from human saliva) (human) (UniProt P23280); assay: SEC; analytical SEC, Superdex 200 5/150 GL, 50 µg protein, 50 mM Tris-HCl pH 7.5, 0.1 ml/min, +12 °C; MW from a standard curve, oligomeric state calculated with a monomer MW of 33.57 kDa
[3] = target: Milk CA VI (carbonic anhydrase VI purified from human milk) (human) (UniProt P23280); assay: SEC; analytical SEC, Superdex 200 5/150 GL, 50 µg protein, 0.1 M Na-acetate buffer pH 5.0, 0.1 ml/min, +12 °C; MW from a standard curve, oligomeric state calculated with a monomer MW of 33.57 kDa
[4] = target: Milk CA VI (carbonic anhydrase VI purified from human milk) (human) (UniProt P23280); assay: SDS-PAGE without cross-linker; milk CA VI without DSS treatment (lane 7), boiled in sample buffer with SDS and reducing agent, SDS-PAGE, densitometry of bands
[5] = target: Milk CA VI (carbonic anhydrase VI purified from human milk) (human) (UniProt P23280); assay: cross-linking; DSS in 25- and 50-fold molar excess over protein (Table 3: 50-fold), milk CA VI 0.25-2 mg/ml in 100 mM Na2HPO4, 0.15 M NaCl pH 7.5, RT 30 min, quenched with Tris-HCl; reducing SDS-PAGE, densitometry of bands
[6] = target: Milk CA VI (carbonic anhydrase VI purified from human milk) (human) (UniProt P23280); assay: SEC; analytical SEC, Superdex 200 5/150 GL, 50 µg protein, 50 mM Tris-HCl pH 7.5, 0.1 ml/min, +12 °C; MW from a standard curve, oligomeric state calculated with a monomer MW of 33.57 kDa

Work on “Salivary CA VI (carbonic anhydrase VI purified from human saliva) (from UniProt P23280 18-308) (enzyme)” yielded a stoichiometry N [1] of 6 and a stoichiometry N [2] of 14.

Work on “Milk CA VI (carbonic anhydrase VI purified from human milk) (from UniProt P23280 18-308) (enzyme)” yielded a stoichiometry N [3] of 7, a % of the lane in the dimer band (no DSS) [4] of 9.67% and a % of the lane in the dimer band (0.25 mg/ml) [5] of 16.1%. For the same substance, the % of the lane in the dimer band (0.5 mg/ml) [5] was 9.88%, the % of the lane in the dimer band (0.75 mg/ml) [5] was 19.4% and the % of the lane in the dimer band (1 mg/ml) [5] was 17%. For the same substance, the % of the lane in the dimer band (1.5 mg/ml) [5] was 16.9%, the % of the lane in the dimer band (2 mg/ml) [5] was 19% and the % of the lane in the hexamer band (0.25 mg/ml) [5] was 22.3%. For the same substance, the % of the lane in the hexamer band (0.5 mg/ml) [5] was 12.8%, the % of the lane in the hexamer band (0.75 mg/ml) [5] was 20.3% and the % of the lane in the hexamer band (1 mg/ml) [5] was 23.5%. The % of the lane in the hexamer band (1.5 mg/ml) [5] was 20.4%, the % of the lane in the hexamer band (2 mg/ml) [5] was 20.8% and the % of the lane in the tetra- or pentamer band (0.25 mg/ml) [5] was 14.1%. The % of the lane in the tetra- or pentamer band (0.5 mg/ml) [5] was 10.2%, the % of the lane in the tetra- or pentamer band (0.75 mg/ml) [5] was 15.2% and the % of the lane in the tetra- or pentamer band (1 mg/ml) [5] was 13.2%. For the same substance, the % of the lane in the tetra- or pentamer band (1.5 mg/ml) [5] was 12.7%, the % of the lane in the tetra- or pentamer band (2 mg/ml) [5] was 12.1% and the stoichiometry N [5] was 5. The stoichiometry N ([5]; dimer band) was 2, the stoichiometry N ([5]; hexamer band) was 6 and the stoichiometry N [6] was 15 and 6.
